Assay results reported in patent US5856138A, “Human parathyroid hormone muteins and production thereof” (Takeda Chemical Industries, Ltd., priority 1991, dated 1999).
Positions count from the first letter of the chain named. Values belong to the molecule of their own block, whether it stands above or below them.

Columns and labels:
human PTH receptor [1] = molecular target: human PTH receptor
human PTH receptor [2] = molecular target: T1, human PTH receptor (Mus musculus, UniProt P41593); test: cAMP production in osteoblast-like MC3T3-EI cells (modified method of Shigeno et al.); format: cell-based; details: specific activity of the muteins on the natural type human PTH (=1.0), 0.01-100 nM analogue, room temperature, 30 minutes
T1 construct: mouse cranial bone-derived osteoblast-like cell strain MC3T3-EI cultivated on a 96-well multiplate; endogenous in cells; host or cells: MC3T3-E1 (mouse cranial bone-derived osteoblast-like cells)
T1 sequence (P41593 27-591): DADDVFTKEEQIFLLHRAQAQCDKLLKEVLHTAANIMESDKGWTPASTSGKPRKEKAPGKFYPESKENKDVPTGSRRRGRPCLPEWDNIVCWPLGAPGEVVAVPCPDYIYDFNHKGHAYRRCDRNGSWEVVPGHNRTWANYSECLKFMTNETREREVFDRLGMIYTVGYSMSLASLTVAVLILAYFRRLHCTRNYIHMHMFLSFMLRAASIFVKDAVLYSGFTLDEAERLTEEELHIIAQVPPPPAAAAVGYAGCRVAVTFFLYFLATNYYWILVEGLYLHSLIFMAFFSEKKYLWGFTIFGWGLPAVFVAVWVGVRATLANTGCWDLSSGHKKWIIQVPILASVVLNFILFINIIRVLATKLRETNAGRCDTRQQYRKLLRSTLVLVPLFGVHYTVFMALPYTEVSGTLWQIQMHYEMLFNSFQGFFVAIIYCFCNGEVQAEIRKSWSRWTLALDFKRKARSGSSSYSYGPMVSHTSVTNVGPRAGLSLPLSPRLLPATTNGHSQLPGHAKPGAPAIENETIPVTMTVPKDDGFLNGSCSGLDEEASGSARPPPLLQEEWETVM
Description: The biological activity of human PTH muteins obtained in Examples 2 to 6 and natural type human PTH were evaluated by a modification of the method reported by Shigeno et al. [The Journal of Biological Chemistry 263. 18369-18377 (1988)]. A culture solution (Hank's solution containing 20 mM N-2-hydroxyethylpiperazine-N'-2-ethanesulfonic acid (HEPES), 0.1% bovine serum albumin (BSA) and 0.5 mM isobutylmethylxanthine) containing 0.01, 0.1, 1, 10 or 100 nM analogue was added in an amount of 100 μl to mouse cranial bone-derived osteoblast-like cell strain MC3T3-EI cultivated on a 96-well multiplate (Nunclon, Nunc), followed by reaction at room temperature for 30 minutes. After addition of 100 μl of 0.2N hydrochloric acid, the mixture was immersed in boiling water for 2.5 minutes, and cyclic adenosine monophosphate (cAMP) produced by a human PTH receptor was extracted from the cells. The total cAMP in the culture solution and the cells was assayed using a commercial radioimmunoassay kit (cyclic AMP [^125 I] kit "Du Pont-Daiichil", Daiichi Kagaku Yakuhin). An increase in cAMP production depending on the concentration of the human PTH mutein added was always observed. The specific activity of the muteins on the natural type human PTH is as follows: […]

- cAMP production in MC3T3-EI cells; specific activity on the natural type human PTH (relative to natural type human PTH) (human PTH receptor [1]): 0.6
Molecule: [Cys35] human PTH (1-84) (ligand)

- cAMP production in MC3T3-EI cells; specific activity on the natural type human PTH (relative to natural type human PTH) (human PTH receptor [1]): 0.2
Molecule: [Leu18] human PTH (1-84) (ligand)

- cAMP production in MC3T3-EI cells; specific activity on the natural type human PTH (relative to natural type human PTH) (human PTH receptor [1]): 0.3
Molecule: [Leu8,18] human PTH (1-84) (ligand)

- cAMP production in MC3T3-EI cells; specific activity on the natural type human PTH (relative to natural type human PTH) (human PTH receptor [1]): 1
Molecule: [Leu8] human PTH (1-84) (ligand)

Molecule: Human PTH: natural type parathyroid hormone, polypeptide hormone consisting of 84 amino acids [reference compound]
- Specific Activity (human PTH receptor [2]): 1.0

- cAMP production in MC3T3-EI cells; specific activity on the natural type human PTH (relative to natural type human PTH) (human PTH receptor [1]): 1
Molecule: natural type human PTH (1-84) (ligand)

B1: [Leu^8 ] human PTH (protein)
chain: SVSEIQLLHNLGKHLNSMERVEWLRKKLQDVHNFVALGAPLAPRDAGSQRPRKKEDNVLVESHEKSLGEADKADVNVLTKAKSQ
- Specific Activity (human PTH receptor [2]): 1.0

B2: [Leu^8,18 ] human PTH: human PTH (1-84) mutein in which methionine residues at the 8- and 18-positions were substituted by leucine (protein)
chain: B1 chain with M18L
- Specific Activity (human PTH receptor [2]): 0.3

B3: [Leu^18 ] human PTH: human PTH (1-84) mutein in which methionine at the 18-position was substituted by leucine (protein)
chain: B1 chain with L8M, M18L
- Specific Activity (human PTH receptor [2]): 0.2

B4: [Cys^35 ] human PTH: human PTH (1-84) mutein in which valine at the 35-position was substituted by cysteine (protein)
chain: B1 chain with L8M, V35C
- Specific Activity (human PTH receptor [2]): 0.6
